Data published in the supplement of paper PMC9732359.
± gives the uncertainty stated by the source.

Assay: protein stability index of a GFP-peptide fusion (yeast GPS) (PSI 1-4); higher = more stable; sorted into four equal gates, so the index is relative within each strain
How it was run: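 Tiled 17-residue yeast protein peptides were fused downstream of GFP in a plasmid that also expresses Cherry, and the pooled library was carried in yeast. Mid-log cultures in leucine-free medium were sorted into four equal gates by GFP/Cherry fluorescence ratio, and plasmids from each gate were PCR-amplified and Illumina-sequenced, with reads assigned to strains by barcodes. The protein stability index for each peptide was each gate's read frequency times its gate number, summed.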

| Sequence | protein stability index (doa10∆) | protein stability index (pdr5∆) | protein stability index (san1∆) | protein stability index (ubr1∆) |
| --- | --- | --- | --- | --- |
| LEAPVKSIENPTQTKGN [YLR335W/NUP2] | 3.04 ± 0.077 | 3.17 ± 0.055 | 3.15 ± 0.051 | 2.95 ± 0.058 |
| LEDPYKYHYKEEWLNTK [CSN9] | 2.88 ± 0.084 | 3.2 ± 0.083 | 2.83 ± 0.065 | 3.09 ± 0.072 |
| LEDYVPHQSPDATRVFV [RPB2] | 2.82 ± 0.055 | 2.87 ± 0.055 | 2.97 ± 0.04 | 3.07 ± 0.04 |
| LEEIRGNPLSIGTLEEI [RPT2] | 3.29 ± 0.1 | 3.42 ± 0.14 | 3.13 ± 0.076 | 3.25 ± 0.17 |
| LEGEEIKSEEKKGKSSD [RPN1] | 2.19 ± 0.077 | 2.17 ± 0.07 | 3.05 ± 0.084 | 2.4 ± 0.043 |
| LEKERSILDDIKLSLKD [SMC4] |  | 2.85 ± 0.14 | 2.43 ± 0.17 | 2.91 ± 0.11 |
| LENSSRSPRVVTNALDN [NUT1] | 2.85 ± 0.06 | 2.51 ± 0.058 | 2.279 ± 0.016 | 2.74 ± 0.057 |
| LEQLAQHTTESDNISRK [RPB2] | 3.33 ± 0.12 | 3.35 ± 0.12 | 3.01 ± 0.076 | 3.11 ± 0.13 |
| LERVKANAAKRAEAKAQ [RPL21A] | 3.14 ± 0.097 | 3.25 ± 0.12 | 3.36 ± 0.061 | 3.14 ± 0.11 |
| LESEAQKKATMSAEEAL [RPC34] | 3.13 ± 0.096 | 3.26 ± 0.14 | 3.04 ± 0.092 | 3.58 ± 0.12 |
| LESINEGNQIIVFVHSR [BRR2] | 1.76 ± 0.073 | 1.88 ± 0.064 | 1.62 ± 0.066 | 1.76 ± 0.071 |
| LESIQKTKEAVAALKAV [RPL4A] |  | 3.37 ± 0.2 | 2.82 ± 0.27 | 2.88 ± 0.17 |
| LESTIAETQGSKVVIDS [IRR1] | 2.9 ± 0.1 | 3.03 ± 0.14 | 3.06 ± 0.12 | 2.98 ± 0.12 |
| LESTKAETDYVDPKRLA [DSN1] | 2.96 ± 0.063 | 3.19 ± 0.067 | 3.04 ± 0.053 | 3.26 ± 0.075 |
| LESYLIVHHPYQSLKQI [SSN8] | 2.33 ± 0.052 | 2.46 ± 0.059 | 2.29 ± 0.053 | 2.38 ± 0.044 |
| LETDGVNLSEVMTVPGI [RPO21] | 2.75 ± 0.19 | 3.36 ± 0.21 | 3.03 ± 0.13 | 3.34 ± 0.14 |
| LEYMNTARINNRRLFKK [RRI2] | 2.5 ± 0.08 | 2.21 ± 0.072 | 2.3 ± 0.083 | 2.5 ± 0.075 |
| LEYYAMLSKTKVYYFQG [RPL30] | 2.4 ± 0.096 | 3.08 ± 0.1 | 2.09 ± 0.079 | 2.89 ± 0.13 |
| LFAGYTDNVIRVWQVMT [ASC1] | 1.61 ± 0.064 | 2.07 ± 0.057 | 1.86 ± 0.099 | 2.06 ± 0.066 |
| LFGQSQQPQTNTAPGLG [YGR119C/NUP57] | 2.68 ± 0.2 | 2.88 ± 0.27 | 3.14 ± 0.16 | 2.97 ± 0.092 |

| Sequence | protein stability index (doa10∆) | protein stability index (pdr5∆) | protein stability index (san1∆) | protein stability index (ubr1∆) |
| --- | --- | --- | --- | --- |
| LFNKPPSTNAQNVNVPS [YOR098C/NUP1] | 3.15 ± 0.056 | 3.05 ± 0.051 | 3.03 ± 0.046 | 3.12 ± 0.04 |
| LFPVAAQDSLTVTIASS [RPB8] | 1.22 ± 0.053 | 1.48 ± 0.049 | 1.32 ± 0.16 | 1.61 ± 0.041 |
| LFQELSKVVDDMPSLRL [GRR1] | 3.2 ± 0.18 | 1.61 ± 0.11 | 2.22 ± 0.12 | 2.31 ± 0.085 |
| LFQRQKLHEFYLLISKE [IRR1] | 2.69 ± 0.12 | 2.97 ± 0.076 | 2.63 ± 0.061 | 2.87 ± 0.12 |
| LFRIFSMSEEFKYVSVR [BRR2] | 2.39 ± 0.14 | 3.18 ± 0.15 | 2.99 ± 0.18 | 3.29 ± 0.12 |
| LFSEKTIRYLMQKQHEM [SNF6] | 2.63 ± 0.044 | 2.55 ± 0.045 | 2.44 ± 0.069 | 2.66 ± 0.034 |
| LGAIEQILIFAADTSIV [YJL039C/NUP192] | 1.47 ± 0.09 | 2.02 ± 0.049 | 1.72 ± 0.091 | 2.56 ± 0.099 |
| LGAVAGLIPYPHHNQSP [RET1] | 2.65 ± 0.094 | 2.97 ± 0.071 | 2.69 ± 0.055 | 2.94 ± 0.065 |
| LGHTKAALGEVASMELK [SIR2] | 2.79 ± 0.085 | 2.96 ± 0.077 | 3.23 ± 0.064 | 2.98 ± 0.12 |
| LGIEAARYSIIREINYT [RPO31] | 1.76 ± 0.13 | 1.66 ± 0.12 | 1.31 ± 0.24 | 1.53 ± 0.12 |
| LGKQSSSLLSRLISSKM [FAS2] | 2.98 ± 0.065 | 2.94 ± 0.065 | 3.02 ± 0.078 | 2.7 ± 0.048 |
| LGKRINSAVNNAISNTQ [SRP54] | 2.46 ± 0.099 | 3.19 ± 0.12 | 2.91 ± 0.096 | 3.12 ± 0.097 |
| LGKRSILAAAHRDAYSG [PRE2] | 2.93 ± 0.2 | 3.26 ± 0.2 | 2.33 ± 0.18 | 2.85 ± 0.083 |
| LGKYEFSKILPAALDGL [ESC2] | 2.28 ± 0.055 | 2.67 ± 0.072 | 1.61 ± 0.13 | 2 ± 0.086 |
| LGLCCLLDVKLAIDNMY [YCG1] | 1.52 ± 0.045 | 1.51 ± 0.04 | 1.78 ± 0.067 | 1.88 ± 0.044 |
| LGLLLPIAASTDLPIET [RPN1] | 1.67 ± 0.049 | 2 ± 0.065 | 1.79 ± 0.076 | 2.17 ± 0.055 |
| LGNSIVKESNNYYSNKS [REC8] | 2.68 ± 0.15 |  | 2.94 ± 0.3 |  |
| LGRLVKAGKITTIEEIF [RPS2] | 2.03 ± 0.099 | 2.29 ± 0.12 | 2.16 ± 0.14 | 2.25 ± 0.12 |
| LGRTGSRGGVTQVRVEF [RPS28A] | 3.29 ± 0.053 | 3.19 ± 0.053 | 3.31 ± 0.047 | 3.19 ± 0.044 |
| LGTLVNQKTSAVAALTE [RPL8A] | 2.37 ± 0.095 | 2.45 ± 0.082 | 2.4 ± 0.15 | 2.25 ± 0.11 |
